Data reported in US20080235824A1, “Use of Esterase Genes as Selectable Markers for Transforming Plant Cells” (priority 2006, published 2008).

Legend:
[1] = Phenol red lipase/esterase assay with crude plant leaf extracts; format: biochemical
Source text: In this Figure, the first tube on the left (labeled “Buffer”) contains phenol red buffer and Tween 20 (the dark red color appears dark in this black and white figure); the second tube to the right (“SL”) has 4 Units of Sigma porcine pancreatic lipase added (the bright yellow color appears light); the third tube to the right (labeled “731”) has a twenty microliter droplet of a crude tomato plant leaf extract from leaves inoculated 4 days earlier with GV2260 carrying “empty” (ie., no lipase gene) expression vector pIPG731 (the dark red color appears dark), and the fourth tube to the right (“768 WI”) has a twenty microliter droplet of crude tomato plant leaf extract from leaves inoculated four days earlier with GV2260 carrying cloned bovine pregastric esterase expressed in pIPG768 (the bright yellow color appears light). Tomato leaf tissue particles may be seen floating in the third and fourth tubes to the right. […] The photo was taken 16 hrs. after start of the assay.
(§1) For transient expression assays of bovine PGE, the plant transformation and expression vectors constructed in Example 12 were moved into A. tumefaciens strain GV2260 by either electroporation or bacterial conjugation as described (Kapila et al., 1997). GV2260 carrying pIPG745 or pIPG746 was used for transient expression in tobacco, pepper, tomato, citrus, geranium, and rice plants as described (Kapila et al. 1997; Duan et al., 1999; Wroblewski et al. 2005). Cultures of Agrobacterium harboring the constructs of interest were grown in minimal medium in the presence of acetosyringone to induce the Agrobacterium vir genes. The optical density of the cultures was maintained at 0.008 for pepper and tomato and at 0.25 for citrus, geranium and rice. Strain GV2260 was flooded into healthy, young, fully expanded leaves of vigorous plants into the apoplastic space through open stomata by injection using a tuberculin syringe without a needle, flooding entire leaves. After 3-4 days, two grams of leaf tissue (fresh weight), was ground in liquid nitrogen to a fine powder, and 0.5 ml of ice cold phosphate buffered saline (PBS; 137 mM NaCl, 2.7 mM KCl, 10 mM potassium phosphate, pH 7.4) was added and mixed thoroughly at 4 C. The mixture was mixed on an orbital shaker at 4 C for 30 minutes, and plant debris was pelleted at 10,000×g for 15 minutes and discarded. The supernatants from these crude plant leaf extracts were directly used in lipase/esterase assays.
The second activity assay was a phenol red lipase/esterase assay using tributyrin, olive oil or Tween 20 as substrates as described by Singh et al. (2006), except that liquid medium, rather than solidified agar medium, was used. Twenty microliter droplets of crude plant leaf extracts and the positive control were placed in the tributyrin/phenol red medium containing tributyrin, olive oil or Tween 20 and incubated at 30 C overnight. […] Transient expression of bovine PGE was confirmed in tobacco, pepper, tomato, citrus, geranium, and rice plants.
For transient expression assays, the plant transformation and expression vectors constructed in Example 15 were moved into A. tumefaciens strain GV2260 by electroporation. GV2260 carrying pIPG823 was used for transient expression in tobacco and geranium plants exactly as described in Example 20. The supernatants from crude plant leaf extracts were directly used in phenol red lipase/esterase assays using tributyrin and olive oil as substrates exactly as described in Example 20.

[2] = Rhodamine lipase assay with crude plant leaf extracts; format: biochemical; conditions: 0.025 ml droplets (crude leaf extract or 20 U porcine lipase); 30 C overnight
Source text: as §1, with “After 3-4 days, two grams of leaf tissue (fresh weight), was ground in liquid nitrogen to a fine powder, and 0.5 ml of ice cold phosphate buffered saline (PBS; 137 mM NaCl, 2.7 mM KCl, 10 mM potassium phosphate, pH 7.4) was added and mixed thoroughly at 4 C. The mixture was mixed on an orbital shaker at 4 C for 30 minutes, and plant debris was pelleted at 10,000×g for 15 minutes and discarded. The supernatants from these crude plant leaf extracts were directly used in lipase/esterase assays.” left out
Two lipase/esterase activity assays were used. […] Lower intensity fluorescence was also observed from the empty vector controls. In order to quantify the difference, 0.2 ml of the rhodamine olive oil suspension was mixed with 0.1 ml of plant extract and allowed to incubate at 30 C for 24 hrs. Fluorescence was measured using a Tecan Spectraluor Plus spectrofluorimeter (excitation=360 nm; emission=535 nm).

Phenol red indicator tube color (FIG. 2) ([1]; Tween 20 substrate, 16 hrs after start, tomato leaf extract or 4 Units lipase): bright yellow
Phenol red indicator color change ([1]; substrates tributyrin and olive oil, extracts of tobacco and geranium leaves, nematode esterase construct): color change from red to bright yellow
Phenol red indicator color change ([1]; substrates tributyrin, olive oil or Tween 20, twenty microliter droplets, 30 C overnight, bovine PGE constructs): color change from red to bright yellow
Fluorescence on rhodamine olive oil agar plates [2]: Bright fluorescent spots
B1: porcine lipase: Commercial porcine pancreatic lipase, positive control of the lipase/esterase assays (protein, UniProt P00591 1-450, looked up)
Pancreatic triacylglycerol …: SEVCFPRLGCFSDDAPWAGIVQRPLKILPWSPKDVDTRFLLYTNQNQNNYQELVADPSTITNSNFRMDRKTRFIIHGFIDKGEEDWLSNICKNLFKVESVNCICVDWKGGSRTGYTQASQNIRIVGAEVAYFVEVLKSSLGYSPSNVHVIGHSLGSHAAGEAGRRTNGTIERITGLDPAEPCFQGTPELVRLDPSDAKFVDVIHTDAAPIIPNLGFGMSQTVGHLDFFPNGGKQMPGCQKNILSQIVDIDGIWEGTRDFVACNHLRSYKYYADSILNPDGFAGFPCDSYNVFTANKCFPCPSEGCPQMGHYADRFPGKTNGVSQVFYLNTGDASNFARWRYKVSVTLSGKKVTGHILVSLFGNEGNSRQYEIYKGTLQPDNTHSDEFDSDVEVGDLQKVKFIWYNNNVINPTLPRVGASKITVERNDGKVYDFCSQETVREEVLLTLNPC
Substrates utilized in phenol red lipase/esterase assay ([1]; transiently plant-expressed enzyme or positive control): utilized all three substrates: tributyrin, olive oil and Tween 20
